Reference: patent US7229621B2, “Method to enhance the immunogenicity of an antigen” (Torrey Pines Institute for Molecular Studies, priority 1998, dated 2007)

Columns and labels:
EL4 tumor cells = experiment: EL4 parent tumor growth (negative control tumor) after intravaginal immunization; type: in vivo, C57BL/6 mice; conditions: SIINFEKL in acetone and dibutyl phthalate intravaginally; EL4 lacks ovalbumin
Source text: The mucous membranes lack the tough barrier posed by the stratum corneum of the skin. […] The EL4 parent tumor cell line, lacking chicken ovalbumin, was used as a negative control; no immunity against the EL4 tumor cells was seen. Thus, the inventors' hypothesis regarding penetration of the stratum corneum was confirmed; the […] peptide was not effectively reaching the immature dendritic cells, known as Langerhans cells, underlying the stratum corneum.

MHC class I molecule K^b = molecular target: T1, MHC class I molecule K^b (Mus musculus, UniProt P01901); experiment: […]:K^b complexes on primary epidermal Langerhans cells in vitro (mAb 25-D1.16 flow cytometry); type: cell-based, C57BL/6 mice; conditions: 1.5 hrs
T1 construct: endogenous in cells; host or cells: primary epidermal Langerhans cells from C57BL/6 dorsal ear skin explants
T1 sequence (P01901 22-369): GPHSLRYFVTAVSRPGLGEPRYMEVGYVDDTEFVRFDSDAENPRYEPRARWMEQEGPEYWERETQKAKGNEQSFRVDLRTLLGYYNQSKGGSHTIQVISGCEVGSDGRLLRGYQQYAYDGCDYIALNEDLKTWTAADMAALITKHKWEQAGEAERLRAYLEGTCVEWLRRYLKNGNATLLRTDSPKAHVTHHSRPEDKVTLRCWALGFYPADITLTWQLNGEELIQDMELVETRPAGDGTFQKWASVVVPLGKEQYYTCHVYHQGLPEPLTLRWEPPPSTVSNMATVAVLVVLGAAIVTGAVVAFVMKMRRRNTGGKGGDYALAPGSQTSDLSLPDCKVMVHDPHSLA
T1 sequence (P01887 21-119 partner): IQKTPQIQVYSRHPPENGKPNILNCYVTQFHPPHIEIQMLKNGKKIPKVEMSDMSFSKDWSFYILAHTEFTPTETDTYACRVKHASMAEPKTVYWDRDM
Source text: To evaluate the immunogenic potential of various vaccine formulations and delivery methods, an antigen system that permits quantitative determination of the number of specific peptide:MHC complexes expressed on the cell membrane was used. To date, the only direct way to quantitate antigenic epitopes expressed on living cells and recognized by T cells is with the use of monoclonal antibodies (mAbs) specific for individual peptide:MHC complexes. Chicken ovalbumin (OVA) is a 40 kDa protein that has been used for many years as a prototypic experimental antigen for immunologic studies. The OVA257-264 peptide, […] (963 Da), is processed and presented in the peptide-binding groove of the MHC class I molecule K^b. The mAb, 25-D1.16, has specificity for the […]:K^b complex (Porgador et al. 1997 Immunity 6:715–726).
Primary epidermal Langerhans cells were obtained from cultured explants of C57BL/6 dorsal ear skin according to the method of Ortner et al. (Ortner et al. 1996 J. Immunol. Meth. 193:71). Over a period of 72 hrs in culture, Langerhans cells mature and migrate out of the explant, dropping onto the bottom of the culture dish. These cells were harvested and incubated for 1.5 hrs at 37° C. with various concentrations of synthetic […] peptide. The cells were then washed and stained with a FITC-conjugated anti-MHC class II (I-A^b) mAb, as well as with affinity purified and biotinylated 25-D1.16 followed by PE-avidin, and analyzed on a FACScan® flow cytometer. Non-specific binding of immunoglobulin proteins was blocked by pre-incubation and staining of the cells in a mixture of isotype control mAbs (rat IgG2a, rat IgG2b, mouse IgG1 and mouse IgG2a, each at 100–200 μg/ml) and the anti-Fc receptor mAb 2.4G2. Langerhans cells were identified by their characteristic light scatter properties (high forward, moderate side scatter) and exceptionally high levels of MHC class II expression, with the latter used to optimize the light scatter gate for each experiment. Dead cells were excluded from analysis by their uptake of 7AAD (7-amino-actinomycin D).
Each data point represents the mean and S.E. of 3 to 5 independent experiments. […]
(§1) As stated previously, whether mature antigen-bearing dendritic cells will be encountered by and activate naive T cells in the lymph node is likely to depend not only on the number of antigen-bearing dendritic cells that enter the node, but also on the density of MHC:peptide complexes expressed on their membranes. To estimate the density of peptide:MHC complexes on the immigrant dendritic cells generated by this procedure, we compared the fluorescence intensity of various cell populations detected by the peptide:MHC-specific mAb, 25-D1.16, using identical staining conditions and flow cytometer settings. The results are shown in Table IV, providing the number of specific peptide:MHC complexes expressed on the plasma membrane of dendritic cells after various treatments in vitro or in vivo.

[1] = test system: dendritic cells in draining lymph node; experiment: Antigen-bearing dendritic cells in lymph node after aqueous antigen applied to skin with DBP and acetone; type: in vivo; conditions: aqueous solution applied to the skin with topical DBP and acetone (data not shown)
Source text: Similarly, when an aqueous solution of a […] peptide or OVA protein antigen was applied to the skin along with topical application of the migration inducer, DBP and acetone, no detectable antigen-bearing (i.e., K^b:[…] positive) dendritic cells appeared in the draining lymph node (data not shown).

E.G7-OVA cells = experiment: K^b:[…] complexes on E.G7-OVA cells (mAb 25-D1.16 fluorescence standard); type: cell-based, C57BL/6; conditions: endogenous SIINFEKL
Source text: as §1
The tumor cell, E.G7-OVA, is the C57BL/6 EL4 thymoma transfected with the complete gene for chicken ovalbumin (OVA). […] The number of those complexes expressed per cell has been measured independently by two different laboratories and reported to be 88 (Rotzschke et al. 1991 Eur. J. Immunol. 21:2891–2894) and 90 (Malarkannan et al. 1995 J. Exp. Med. 182:1739–1750). Therefore, the fluorescence intensity of E.G7-OVA could be used as a standard by which to estimate the number of K^b:[…] complexes expressed on the dendritic cell populations identified in the present study. […]

“SIINFEKL [eight amino acid peptide OVA257-264 of chicken ovalbumin, tumor-associated peptide antigen presented by K^b]” was tested, and the “immunity against EL4 tumor cells” value (EL4 tumor cells) was “no immunity”, the “Median No. of Complexes/Cell” value (MHC class I molecule K^b; 0.1 nM SIINFEKL in vitro) was 240 complexes/cell and the “Median Specific Fl. Intensity” value (MHC class I molecule K^b; 0.1 nM SIINFEKL in vitro) was 12. The “Median No. of Complexes/Cell” value (MHC class I molecule K^b; 1.0 nM SIINFEKL in vitro) was 1,600 complexes/cell, the “Median Specific Fl. Intensity” value (MHC class I molecule K^b; 1.0 nM SIINFEKL in vitro) was 80 and the “Median No. of Complexes/Cell” value (MHC class I molecule K^b; 10 nM SIINFEKL in vitro) was 4,180 complexes/cell. For the same sequence, the “Median Specific Fl. Intensity” value (MHC class I molecule K^b; 10 nM SIINFEKL in vitro) was 209, the “Median No. of Complexes/Cell” value (MHC class I molecule K^b; 100 nM SIINFEKL in vitro) was 11,160 complexes/cell and the “Median Specific Fl. Intensity” value (MHC class I molecule K^b; 100 nM SIINFEKL in vitro) was 558. For the same sequence, the “Median No. of Complexes/Cell” value (MHC class I molecule K^b; 1 μM SIINFEKL in vitro) was 15,200 complexes/cell, the “Median Specific Fl. Intensity” value (MHC class I molecule K^b; 1 μM SIINFEKL in vitro) was 760 and the “antigen-bearing (K^b:SIINFEKL positive) dendritic cells in the draining lymph node” value [1] was “no detectable”. For the same sequence, the “Median Specific Fl. Intensity” value (E.G7-OVA cells) was 4.5.
